Measurements reported in article PMC11630572, “Discovery of Nanosota-9 as anti-Omicron nanobody therapeutic candidate” (PLOS Pathogens, 2024).

Key:
Assay in all cases: SPR; Biacore S200; spike ectodomain immobilized on CM5 chip by chemical crosslinking; Nanosota-9-His injected at 8, 16, 32, 64, 128 nM; running buffer 10 mM HEPES, 150 mM NaCl, 0.05% Tween 20
Conditions in all cases: both partners purified
[1] = target: T1, recombinant spike ectodomain of SARS-CoV-2 Omicron subvariant XBB.1.5 (SARS-CoV-2 Omicron XBB.1.5, strain)
T1 construct: The same GISAID id is printed for XBB.1.5 and JN.1; also called XBB.1.5 spike ectodomain; XBB.1.5 spike; not shown: His tag, C-terminal, kept

[2] = target: T2, recombinant spike ectodomain of SARS-CoV-2 Omicron subvariant JN.1 (SARS-CoV-2 Omicron JN.1, strain)
T2 construct: The same GISAID id is printed for XBB.1.5 and JN.1; also called JN.1 spike ectodomain; JN.1 spike; not shown: His tag, C-terminal, kept

[3] = target: T3, recombinant spike ectodomain of SARS-CoV-2 Omicron subvariant BA.5 (SARS-CoV-2 Omicron BA.5, strain)
T3 construct: also called BA.5 spike ectodomain; BA.5 spike; not shown: His tag, C-terminal, kept

B1: His-tagged Nanosota-9 (Nanosota-9-His) (VHH)
VHH: QVQLQESGGGLVQPGGSLRLSCTASGIALHTHATGWFRQAPGKEREGVSCISSGDGTTYYEDSVEGRFTISRDNAKNTVYLQMNSLKLEDTAVYYCAADPGAVCHSGSYYYTDDDFYYRGQGTQVTVSS
notes: Nanosota-9 nanobody from an alpaca immunized with the BA.5 spike ectodomain; also called monomeric Nanosota-9; not shown: His tag, C-terminal, kept
Kd [1]: 0.06 nM | Kd [2]: 29.4 nM | Kd [3]: 0.078 nM
